In patent US7691567B2, “Methods and compositions relating to fortilin, an anti-apoptotic molecule, and modulators of fortilin” (Board of Regents, the University of Texas System, priority 2000, dated 2010):
Entries after “also recorded” stand apart in the source; their conditions may differ. Read-outs that look alike come from different tables or passages of the source.

How the values were obtained:
[1] = biological target: PCNA (Homo sapiens, UniProt P12004); assay: In vitro pull-down assay of Fortilin-HA with PCNA; type: binding; conditions: in vitro translated proteins, anti-HA pull-down
[2] = biological target: T1, MCL1 (Homo sapiens, UniProt Q07820); assay: GST-Fortilin in vitro pull-down of labeled MCL1; type: binding; conditions: 35S-labeled MCL1
Procedure: (§1) Studies were initiated to determine whether p53 and Fortilin specifically interact. Either recombinant GST-Fortilin or GST only were incubated at 4° C. for 90 minutes with in vitro translated, [^35S-Met]-labeled p53, MCL1 or Bcl-xL, in Binding Buffer (50 mM HEPES, pH7.5, 70 mM KCl, 0.5 mM ATP, 5 mM MgSO4, 1 mM DTT, 0.001% NP40, 50 μM MG132, 2 μg/mL BSA, Aporotinin, PMSF and protease inhibitor cocktail (Sigma Co., St. Louis, Mo.)). The GST or GST-Fortilin was then pulled down with Glutathione Sepharose 4B beads (Amersham-Pharmacia Biotechnologies). Formed complexes were extensively washed and eluted into SDS loading buffer. The eluted proteins were subjected to SDS-PAGE in duplicate. The first SDS gel was stained with Commassie Blue to confirm the successful immunoprecipitation of GST and GST-Fortilin (IP). […] Thus, there is a specific interaction present between Fortilin and p53, between Fortilin and MCL1.

[3] = system: MCL1; assay: Western blot of intracellular MCL1 concentration in U2OS cells overexpressing Fortilin; type: cell-based; conditions: U2OS stable transfectants, compared with control or wild type transfectants
[4] = biological target: T2, Bcl-xL (Homo sapiens, UniProt Q07817); assay: GST-Fortilin in vitro pull-down of labeled Bcl-xL; type: binding; conditions: 35S-labeled Bcl-xL
Procedure: as §1

[5] = biological target: T1, MCL1; assay: In vivo coimmunoprecipitation assay in U2OS stable transfectants of Fortilin and mutants; conditions: anti-HA immunoprecipitation
Text: In vivo coimmunoprecipitation assay. COS-7 cells (2.5×10^6) were cotransfected with pcDNA3-Fortilin-HA or pcDNA3 and with FLAG-MCL1/pFLAG-CMV or pFLAG-CMV vectors using FuGENE6 (Roche Molecular Biochemicals), according to the manufacturer's instructions. […] Formed complexes were precipitated by sheep anti-rat antibodies conjugated to Dynabead™ (Dynal USA); washed with Buffers A and B; eluted into SDS gel loading buffer; and subjected to SDS-PAGE, Western blot transfer and immuodetection with anti-HA (16B12; Covance, Richmond, Calif.) and anti-FLAG (M2; Sigma) antibodies. […] Cells were harvested by scraping, washed with chilled PBS, suspended in Buffer C (Buffer A supplemented with 0.02% NP-40), and lysed by a nitrogen cavitation method (PARR Instrument Co). […] Formed complexes were precipitated by sheep anti-rat antibodies conjugated to Dynabeads™ (Dynal USA); washed with Buffers C; eluted into SDS gel loading buffer; and subjected to SDS-PAGE, Western blot transfer and immuodetection with anti-HA (16B12; Covance, Richmond, Calif.) and anti-MCL1 (Santa Cruz Biotechnology) antibodies.

[6] = system: U2OS cells; conditions: for cytotoxicity index relative to control transfectants: U2OS stable transfectants of HA-tagged Fortilin or deletion mutants, 5 μg/mL etoposide 48 hours
Text: Generation and characterization of U2OS cells stably expressing Fortilin. U2OS cells were transfected with empty pcDNA6, a mammalian expression vector containing a blasticidine resistance gene (Invitrogen, Carlsbad, Calif.), or with pcDNA6 vector encoding wild-type Fortilin, by using FuGENE6 (Roche Molecular Biochemicals) according to the manufacturer's instructions. Transfected cells were selected for approximately 3 weeks and characterized by Western blot analysis. For the cytotoxicity assay, U2OS cells stably expressing wild-type Fortilin (U2OS.F) and U2OS cells stably harboring empty pcDNA6 (U2OS.E) were seeded in a 96 well plate in quadruplicate. For the investigation of dose response, cells were challenged with various concentrations of etoposide (0-20 μg/mL) for 48 hours. For the time course study, cells were challenged with 5 μg/mL of etoposide and harvested after various incubation periods (0-96 hours). In both cases, the cell media were assayed for the lactate dehydrogenase (LDH) activity released from the cytosol of damaged cells, using a cytotoxicity detection kit (Roche Molecular Biochemicals) according to the manufacturer's instructions. The cytotoxicity index was calculated as follows: (LDH activity in the media−background LDH activity)÷(LDH activity in the medium of cells lysed by 1% Triton X-100−background LDH activity)×100.
Cell death assay. U2OS cells stably expressing Fortilin or its mutants were seeded in 96-well plates in triplicate. Cells were then challenged with 5 μg/mL of etoposide (Sigma) for 48 hours. Then the cell media were assayed for the lactate dehydrogenase (LDH) activity released from the cytosol of damaged cells, using a Cytotoxicity Detection Kit (Roche Molecular Biochemicals), according to the manufacturer's instructions. The cytotoxicity index was calculated as follows: (LDH activity in the media−background LDH activity)/(LDH activity in the medium of the cells lysed by 1% Triton X-100−background LDH activity)×100.
Statistical analysis. For analysis of the statistical significance of differences in cytotoxicity indices among cells stably transfected with Fortilin, its mutants or control plasmids, Student's t-test was performed using a commercial software (Minitab Inc., State College, Pa.). In all cases, a P-value less than 0.05 was considered to be statistically significant.

[7] = system: U2OS cells; assay: Bax-mediated apoptosis in transfected U2OS cells (apoptotic index); type: cell-based; conditions: U2OS cells cotransfected with Bax-pcDNA3, thirty hours after transfection
Procedure: The amount of LacZ-pFLAG was 1/10 to 1/20 (w/w) of total amounts of DNA added. Thirty hours after the transfection, cells were stained with X-gal. Blue cells represented cells expressing Bax, β-galactosidase and indicated proteins in question. At least 300 blue cells were counted and evaluated for plasma membrane morphology. Rounded cells were counted as apoptotic. Apoptotic index was calculated as the number of blue apoptotic cells divided by the number of total blue cells counted, expressed in percentage. Without the expression of Bax, there was a modest amount of background cell death noted (Lane 6). On the other hand, the presence of Bax caused 2 holds increase in the number of apoptotic cells (Lane 5). […] Taken together, the ability of Fortilin to inhibit Bax mediated apoptosis is mediated by its interaction with MCL1.

[8] = biological target: p53 (Homo sapiens, UniProt P04637); assay: GST-Fortilin in vitro pull-down of labeled p53; type: binding; conditions: 35S-labeled p53, 4° C. 90 minutes
Procedure: as §1

[9] = biological target: T1, MCL1; assay: In vitro pull-down assay of HA-tagged Fortilin or mutants with MCL1; type: binding; conditions: in vitro translated 35S-labeled proteins, anti-HA pull-down
[10] = biological target: T2, Bcl-xL; assay: In vitro pull-down assay of Fortilin-HA with Bcl-xL; type: binding; conditions: in vitro translated proteins, anti-HA pull-down
[11] = system: p53 transactivation of Bax gene; assay: p53 transactivation of Bax gene, p-Bax-RE-Luc luciferase reporter in H1299 cells; type: cell-based
Procedure: The ability of Fortilin to interfere with transactivation of the Bax gene by p53 was investigated. Non-small cell lung cancer cell line H1299 cells were transfected with p53-pcDNA3, LacZ-pFLAG, p-Bax-RE-Luc (a plasmid encoding the Luciferase gene under the control of the Bax responsive element) and pFLAG vector encoding Bcl-2, MCL1, Fortilin or truncated Fortilin as indicated in FIG. 6. Twenty-four hours after the transfection, luciferase activity was measured and normalized to the β-galactosidase activity, the latter representing transfection efficiency.
Next, studies were conducted to determine whether the inhibition was dosage dependent. H1299 cells were transfected with p53-pcDNA3, LacZ-pFLAG, p-Bax-RE-Luc and various amount of Fortilin-pFLAG. The total amount of DNA added was adjusted by the addition of empty pFLAG vector. Twenty-four hours after the transfection, luciferase activity was measured and normalized to the β-galactosidase activity.

[12] = system: HeLa cells; assay: Cell death assay: etoposide-induced apoptosis in transfected HeLa cells (apoptotic index); type: cell-based
Procedure: Cell death assay: The experiment was performed in duplicate and repeated at least three times. A total of […] HeLa cells were seeded in each well of a 4-well Lab-Teck™ chamber slides (Nalge Nunc International), and transfected with pFLAG containing Fortilin or other control cDNAs, using FuGENE6 (Roche). Twenty-four hours after the transfection, the cells were challenged by 5 μg/mL etoposide for 12 hours. Cells were stained for the FLAG-epitope using anti-FLAG antibody (M2, Sigma Co) and anti-mouse IgG conjugated to Rhodamine Red X (Jackson ImmunoResearch Laboratories). The nuclei were stained with DAPI (4,6-Diamidino-2-phenylindole, Sigma Co). Cells were then examined under a Zeiss AXIOSKOP fluorescent microscope (Carl Zeiss Ltd.), using appropriate filter sets. Cells that emitted red fluorescence were evaluated for their nuclear morphology. Condensed or fragmented nuclei were counted as apoptotic. An apoptotic index was then calculated as the number of red cells with apoptotic nuclear morphology divided by the number of total red cells counted and multiplied by 100.
Statistical analysis: For the analysis of statistical significance of apoptotic indices among cells transfected with different plasmids, Dunnett's T tests were performed. In all cases, the confidence intervals were 0.95 with the alpha value of 0.05. For the statistical evaluation of the significant linear trend between the amount of plasmids used for the transfection and apoptotic indices, ANOVA (Analysis of Variance) regression analysis was employed. […] For the analysis of statistical significance of possible correlation between the degree of malignancy and the indices of Fortilin immunoreactivity, Dunnett's multiple range tests were performed.

[13] = system: H1299 cells; assay: p53-mediated apoptosis in transfected H1299 cells (apoptotic index); type: cell-based; conditions: overexpression, thirty hours after transfection
Procedure: Because wild-type p53 can induce apoptosis, the ability of Fortilin to prevent or inhibit p53-mediated apoptosis was examined. H1299 cells were transfected with indicated combinations of mammalian expression constructs. Thirty hours after the transfection, cells were fixed and stained for beta-galactosidase activities. Cells that were round in shape with significant membrane irregularity were counted as apoptotic (FIG. 5). Apoptotic index was calculated as (Blue cells with apoptotic plasma membrane morphology)/(Total blue cells counted)×100.

T1 sequence (Q07820 whole entry): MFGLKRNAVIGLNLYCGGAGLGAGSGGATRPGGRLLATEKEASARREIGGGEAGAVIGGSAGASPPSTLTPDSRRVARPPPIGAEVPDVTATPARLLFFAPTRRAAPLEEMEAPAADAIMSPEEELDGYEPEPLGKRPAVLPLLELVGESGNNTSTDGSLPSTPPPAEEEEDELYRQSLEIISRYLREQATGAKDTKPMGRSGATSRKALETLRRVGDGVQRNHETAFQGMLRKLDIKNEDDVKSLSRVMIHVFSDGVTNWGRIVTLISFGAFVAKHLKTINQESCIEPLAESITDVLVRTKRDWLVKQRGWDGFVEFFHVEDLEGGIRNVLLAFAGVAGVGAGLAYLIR
T2 sequence (Q07817 whole entry, species assumed): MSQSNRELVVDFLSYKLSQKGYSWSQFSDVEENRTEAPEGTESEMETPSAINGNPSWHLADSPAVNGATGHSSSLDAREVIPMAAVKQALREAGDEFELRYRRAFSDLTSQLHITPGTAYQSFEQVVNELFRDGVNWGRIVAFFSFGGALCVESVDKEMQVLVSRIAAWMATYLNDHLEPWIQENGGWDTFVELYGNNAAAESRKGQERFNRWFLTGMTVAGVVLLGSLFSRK
p53, sequence (P04637 whole entry, species assumed): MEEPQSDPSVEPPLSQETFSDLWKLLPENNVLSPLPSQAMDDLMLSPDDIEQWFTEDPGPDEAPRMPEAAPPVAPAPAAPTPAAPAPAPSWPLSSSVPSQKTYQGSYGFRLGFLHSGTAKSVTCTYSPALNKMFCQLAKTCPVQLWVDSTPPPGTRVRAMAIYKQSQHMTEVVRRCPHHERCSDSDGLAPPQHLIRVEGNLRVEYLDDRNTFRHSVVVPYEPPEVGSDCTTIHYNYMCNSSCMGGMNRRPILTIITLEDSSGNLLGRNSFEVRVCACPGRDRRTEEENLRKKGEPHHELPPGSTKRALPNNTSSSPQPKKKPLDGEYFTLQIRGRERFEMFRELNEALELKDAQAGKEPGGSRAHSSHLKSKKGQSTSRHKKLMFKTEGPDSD
PCNA, sequence (P12004 whole entry, species assumed): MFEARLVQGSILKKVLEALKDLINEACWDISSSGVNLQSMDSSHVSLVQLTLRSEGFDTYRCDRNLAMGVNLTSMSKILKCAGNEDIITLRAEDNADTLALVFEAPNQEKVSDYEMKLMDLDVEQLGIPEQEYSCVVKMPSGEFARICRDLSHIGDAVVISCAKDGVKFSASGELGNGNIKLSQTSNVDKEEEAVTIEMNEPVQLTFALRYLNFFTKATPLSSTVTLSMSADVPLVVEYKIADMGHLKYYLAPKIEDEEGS

In the case of “Fortilin: 172 amino acid anti-apoptotic polypeptide (SEQ ID NO:2), overexpressed from expression constructs or used as recombinant/in vitro translated protein”, the “co-immunoprecipitation of PCNA with Fortilin in vitro” value [1] is reported as “not PCNA”, the “co-precipitation of MCL1 with Fortilin in vitro” value [2] is reported as “co-precipitated with Fortilin” and the “expression levels of MCL1 (MCL1 Expression Index)” value [3] is reported as “similar”. For the same substance, the “co-immunoprecipitation of Bcl-xL with Fortilin in vitro” value [4] was “not Bcl-xL”, the “co-immunoprecipitation of MCL1 in vivo” value [5] was “co-immunoprecipitated MCL1” and the “cytotoxicity index relative to control transfectants” value ([6]; listed as wild type Fortilin) was “significantly lower”. For the same substance, the “cytotoxicity index relative to control transfectants” value ([6]; listed as wild-type fortilin) was “significantly lower than the cytotoxicity index of control cells”, the “etoposide-induced cytotoxicity (LDH cytotoxicity index), time course” value ([6]; U2OS stably expressing Fortilin vs empty vector, 5 μg/mL etoposide, 48, 72, 96 hours) was “lesser amounts of etoposide-induced cytotoxicity after incubation periods of 48, 72, and 96 hours; also recorded: significantly less cytotoxicity at various time points after the etoposide challenge” and the “etoposide-induced cytotoxicity (LDH cytotoxicity index), dose response” value ([6]; U2OS stably expressing Fortilin vs empty vector, etoposide 2.5, 5, 10, 20 μg/mL, 48 hours) was “significantly lesser amounts of etoposide-induced cytotoxicity; also recorded: significantly less cytotoxicity over the wide range of etoposide concentrations”. For the same substance, the “prevention of Bax mediated apoptosis (apoptotic index)” value [7] was “suppressed Bax induced cell death”, the “co-immunoprecipitation of p53 with Fortilin in vitro” value [8] was “co-immunoprecipitated with Fortilin in vitro” and the “interaction / co-immunoprecipitation with MCL1 in vitro” value [9] was “co-immunoprecipitated with Fortilin in vitro”. The “interaction / co-immunoprecipitation with MCL1 in vitro” value ([9]; listed as full-length Fortilin) was “co-immunoprecipitated MCL1 in vitro; also recorded: interacted”, the “co-immunoprecipitation of Bcl-xL with Fortilin in vitro” value [10] was “not” and the “inhibition of p53 transactivation of Bax gene (luciferase normalized to β-galactosidase)” value ([11]; twenty-four hours after transfection) was “inhibited p53 transactivation of the Bax gene”. The “inhibitory effect on p53 transactivation of Bax gene versus amount of Fortilin transfected” value ([11]; various amount of Fortilin-pFLAG) was “stronger inhibitory effects on p53 transactivation of the Bax gene; also recorded: larger inhibitory effect on p53 transactivation of Bax gene”, the “prevention of Etoposide-induced apoptosis (apoptotic index)” value ([12]; HeLa cells overexpressing FLAG-tagged protein, 5 μg/mL etoposide 12 hours) was “prevented HeLa cells from undergoing Etoposide-induced apoptosis in a statistically significant fashion; also recorded: as strong an anti-apoptotic effect as that of Bcl-xL and MCL1” and the “apoptotic index versus amount of Fortilin expressed” value ([12]; HeLa cells, various amounts of pFLAG-Fortilin, etoposide challenge) was “more prominent anti-apoptotic effects”. For the same substance, the “suppression of p53 induced apoptosis (apoptotic index)” value [13] was “statistically significant (p<0.001) suppression of p53-induced apoptosis; also recorded: statistically significant (p<0.001) suppression of p53 induced apoptosis”.
